Experiment [1] has as its target LSD1, endogenous in LNCaP cells (human, UniProt O60341 1-852). The experiment in a line: Re-ChIP in LNCaP cells, first α-PKCβI then α-LSD1, KLK2 and FKBP5 promoters. As for the experimental part: (§1) ChIP and Re-ChIP experiments were performed as described³. LNCaP cells were cultured for 15 min (ChIP) or 210 min (Re-ChIP) in the presence or absence of 1×10⁻⁸M R1881 as indicated. Three days before harvesting, cells were transfected with siRNA (control for PKCβI: 5′-[…]-3′(SEQ ID NO 3); PKCβI: 5′-[…]-3′ (SEQ ID NO 4) (FIG. 3 b, c, f-i); control for PRK1: 5′-[…]-3′ (SEQ ID NO 14); PRK1: 5′-[…]-3′ (SEQ ID NO: 15) (FIG. 3 d, e); Invitrogen) using RNAifect (Qiagen) following the manufacturer's instructions. Immunoprecipitation was performed with specific antibodies (α-AR #06-680 lot 33529 (Upstate Biotechnology), α-H3K4me1 #ab8895 lot 535654, α-H3T6ph #ab14102 lot 481643, α-H3 #ab1791 lot 172452, α-PKCβI S660ph #ab23513 lot 596904 (Abcam), α-PKCβI (C-16) #sc-209 lot 481643, (Santa Cruz), α-H3K4me2 #cs-035-100 lot A391001 (Diagenode), α-PRK1³, and α-LSD1²) on protein A-Sepharose 4B (GE-Healthcare). For PCR, 2 μl out of 50 μl DNA extract was used. PCR primers for FKBP5 (+351/+443), KLK2 (−343/−90), SCN1A, SCN2A, GAPDH, and U6 were described previously^{1, 2, 6, 11}.
Therefore, it was investigated whether PKCβI is present at AR target genes and phosphorylates H3T6 in vivo. To analyse first whether PKCβI binds to promoters of AR target genes, LNCaP cells were subjected to chromatin immunoprecipitation (ChIP) in the presence or absence of the AR agonist R1881. […]

In experiment [2] the target is Protein-kinase-C-related kinase 1 (PRK1), endogenous in LNCaP cells (human, UniProt Q16512 2-942). The experiment can be described thus: Re-ChIP in LNCaP cells, first α-PKCβI then α-PRK1. As for the experimental part: as §1
Protein-kinase-C-related kinase 1 (PRK1), endogenous in LNCaP cells, sequence (Q16512 2-942 limits assumed): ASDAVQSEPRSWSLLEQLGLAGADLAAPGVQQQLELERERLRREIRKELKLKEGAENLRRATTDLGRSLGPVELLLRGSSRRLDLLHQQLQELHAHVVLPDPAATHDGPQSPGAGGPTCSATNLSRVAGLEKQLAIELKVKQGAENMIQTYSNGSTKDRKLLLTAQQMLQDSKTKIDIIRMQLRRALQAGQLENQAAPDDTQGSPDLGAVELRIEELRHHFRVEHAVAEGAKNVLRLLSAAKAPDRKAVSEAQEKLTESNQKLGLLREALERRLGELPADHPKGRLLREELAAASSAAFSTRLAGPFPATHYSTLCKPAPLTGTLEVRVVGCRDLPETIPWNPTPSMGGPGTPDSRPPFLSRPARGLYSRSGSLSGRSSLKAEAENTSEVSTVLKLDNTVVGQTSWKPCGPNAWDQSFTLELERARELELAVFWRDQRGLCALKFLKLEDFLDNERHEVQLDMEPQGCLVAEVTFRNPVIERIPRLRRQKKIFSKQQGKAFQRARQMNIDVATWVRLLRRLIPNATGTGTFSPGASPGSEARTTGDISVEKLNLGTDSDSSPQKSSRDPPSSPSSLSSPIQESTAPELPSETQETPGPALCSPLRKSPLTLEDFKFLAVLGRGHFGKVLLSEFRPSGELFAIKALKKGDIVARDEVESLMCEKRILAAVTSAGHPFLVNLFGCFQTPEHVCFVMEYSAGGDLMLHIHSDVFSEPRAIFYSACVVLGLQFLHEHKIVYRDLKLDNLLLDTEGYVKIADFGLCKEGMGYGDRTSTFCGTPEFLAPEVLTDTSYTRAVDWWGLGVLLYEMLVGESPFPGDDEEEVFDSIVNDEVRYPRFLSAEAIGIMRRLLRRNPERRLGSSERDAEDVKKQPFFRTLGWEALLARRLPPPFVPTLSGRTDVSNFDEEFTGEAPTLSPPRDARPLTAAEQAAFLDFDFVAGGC
It was recently shown by the inventors that PRK1 is a gatekeeper for regulation of AR target gene expression³. PRK1 controls multiple processes during AR-dependent transcription, such as transition from the RNA polymerase II pre-initiation to the initiation complex and demethylation at lysine 9 of histone H3 (H3K9)³. […]

B1: protein kinase C beta 1 (PKCβI), endogenous in LNCaP cells (enzyme)
chain: not shown
notes: here the endogenous protein on chromatin of LNCaP human prostate cancer cells; also called protein kinase C βI; PKCβ1
Turning to B1, the binding result in experiment [1] and in experiment [2] was “binds” each time.

For the origin of these results see patent US20120329854A1 (UNIVERSIT TSKLINIKUM FREIBURG, published 2012).
